Patent publication US20260191954A1, “COMPOSITIONS AND METHODS FOR NEOADJUVANT TREATMENT IN CANCER” (INNATE PHARMA, priority 2022, published 2026)
“And” between values parts separate entries of the source, which are not always exact repeats. Equal values may be shown once.

Columns and labels:
OAW42 (CD39+) cells = assay: eATP release in OAW42 (CD39+) cells with IPH5201 and docetaxel; assay type: cell-based; conditions: IPH5201 10 or 50 μg/mL + docetaxel dose range, 30 h, FIG. 3B
Protocol: OAW42 (CD39+) cells were incubated with 10 or 50 μg/mL of IPH5201 and treated with a dose range of docetaxel. The measure of eATP release was performed 30 h after docetaxel treatment. eATP was measured in the cell culture supernatant with a luminescent-based assay (CellTiter-Glo®) and expressed in Luminescence Arbitrary Unit (AU). Means+/−SD.

[1] = target: T1, free membrane CD39 (mCD39) on monocytes (Homo sapiens, UniProt P49961); assay: Indirect response PD model: IPH5201 concentration vs free mCD39 on monocytes, phase 1 patients; assay type: in vivo
T1 construct: endogenous in cells; host or cells: monocytes and B cells in patients' blood
T1 sequence (P49961 1-510): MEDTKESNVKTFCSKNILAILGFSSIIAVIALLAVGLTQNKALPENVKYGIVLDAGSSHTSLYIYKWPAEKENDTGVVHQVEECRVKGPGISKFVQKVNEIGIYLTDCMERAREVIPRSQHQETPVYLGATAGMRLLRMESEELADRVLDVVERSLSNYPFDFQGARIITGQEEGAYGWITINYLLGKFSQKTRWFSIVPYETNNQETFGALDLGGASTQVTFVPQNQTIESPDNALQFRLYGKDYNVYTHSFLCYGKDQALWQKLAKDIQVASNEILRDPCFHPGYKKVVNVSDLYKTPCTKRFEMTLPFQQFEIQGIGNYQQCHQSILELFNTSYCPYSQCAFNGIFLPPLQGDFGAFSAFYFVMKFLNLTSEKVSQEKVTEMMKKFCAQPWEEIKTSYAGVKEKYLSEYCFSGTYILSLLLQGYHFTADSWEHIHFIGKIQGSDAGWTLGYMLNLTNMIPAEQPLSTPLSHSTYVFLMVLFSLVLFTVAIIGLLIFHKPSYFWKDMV
Excerpt: (§1) PK/PD modelling and simulation were used to guide selection of doses. IPH5201 PK data from 45 patients and PD data of free membrane CD39 (mCD39) occupancy on monocytes from 43 patients were available.
An indirect response PD model (inhibition on Kin) was then built to describe the relationship between IPH5201 concentrations and free mCD39 on monocytes (FIG. 10). The model accurately predicted CD39free+ of monocytes (%). […] The final indirect response model was then used for parametric simulation.

[2] = target: T2, membrane-bound CD39 on immune cells (Homo sapiens, UniProt P49961); assay: Free CD39 on monocytes and B cells in patient blood (flow cytometry); assay type: in vivo
T2 construct: To assess free CD39 on monocytes and B cells, blood samples are spiked with an antibody; endogenous in cells; host or cells: monocytes and B cells in patients' blood
T2 sequence (P49961 1-510): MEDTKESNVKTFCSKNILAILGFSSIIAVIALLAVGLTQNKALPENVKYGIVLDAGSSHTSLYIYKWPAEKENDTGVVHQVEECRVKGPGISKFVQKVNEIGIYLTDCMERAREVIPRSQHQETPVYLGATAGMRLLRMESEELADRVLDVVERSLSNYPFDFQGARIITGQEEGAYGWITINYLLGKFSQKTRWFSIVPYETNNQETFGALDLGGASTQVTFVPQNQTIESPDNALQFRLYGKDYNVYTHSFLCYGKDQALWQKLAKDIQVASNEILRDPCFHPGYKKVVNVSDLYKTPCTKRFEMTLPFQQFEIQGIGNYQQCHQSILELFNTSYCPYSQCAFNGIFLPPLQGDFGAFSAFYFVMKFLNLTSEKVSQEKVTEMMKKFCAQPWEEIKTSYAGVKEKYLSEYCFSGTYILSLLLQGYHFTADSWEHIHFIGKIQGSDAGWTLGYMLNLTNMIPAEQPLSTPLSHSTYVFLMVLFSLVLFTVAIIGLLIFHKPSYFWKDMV
Protocol: CD39 occupancy by IPH5201 in samples from patients was determined by assessing free soluble CD39 and free membrane bound CD39.
To assess free CD39 on monocytes and B cells, blood samples are spiked with an antibody having the VH and VL of IPH5201 and a mouse Fc domain and labelled with a fluorochrome. A second non-competing anti-CD39 monoclonal antibody labelled with a distinct fluorochrome is used to bind to a site on CD39 distinct from the capture antibody. CD14, CD19 and CD45 are detected by incubation with anti-CD14, CD19 and CD45 monoclonal antibodies each labelled with a distinct fluorochrome. Binding is detected by flow cytometry.

[3] = Pharmacokinetics of IPH5201 in phase 1 patients; assay type: in vivo, human
Protocol: A first-in-human, multicentre, non-randomised, open-label, phase 1 study was conducted in order to assess the safety, efficacy, pharmacokinetics (PK) and pharmacodynamics (PD) of IPH5201±durvalumab (Imfinzi™) in patients with advanced solid tumours. The study consisted of two consecutive dose-escalation parts: • Part 1: Ascending doses of IPH5201 (100, 300, 1000 and 3000 mg) every 3 weeks (Q3W). • Part 2: Ascending doses of IPH5201 (300, 1000 and 3000 mg) and 1500 mg durvalumab Q3W.
as §1
On the left hand panel, curves from bottom to top represent 100 mg, 300 mg, 1000 mg and 3000 mg doses of IPH5201; on the right hand panel curves from bottom to top represent 300 mg, 1000 mg (up to the 21 day time point) and 3000 mg doses of IPH5201. The PK of IPH5201 was non-linear at ≤300 mg and linear at ≥1000 mg. Free soluble CD39 was above the lower limit of quantitation at cycle 1, day 2 or later in 6/40 patients (n=2, 100 mg; n=1, 1000 mg; n=3, 3000 mg).

[4] = serum IPH5201, fixed doses Q3W, mono or with durvalumab, FIG. 12

B1: IPH5201: humanized anti-CD39 antibody having the respective heavy and light chain amino acid sequences of SEQ ID NOS: 10 and 11 (antibody)
heavy: QVQLVQSGAEVKKPGASVKVSCKASGYTFTDYNMHWVRQAPGQRLEWIGYIVPLNGGSTFNQKFKGRATITVDTSARTAYMELSSLRSEDTAVYYCARGGTRFAYWGQGTLVTVSSASTKGPSVFPLAPSSKSTSGGTAALGCLVKDYFPEPVTVSWNSGALTSGVHTFPAVLQSSGLYSLSSVVTVPSSSLGTQTYICNVNHKPSNTKVDKRVEPKSCDKTHTCPPCPAPEAEGAPSVFLFPPKPKDTLMISRTPEVTCVVVDVSHEDPEVKFNWYVDGVEVHNAKTKPREEQYNSTYRVVSVLTVLHQDWLNGKEYKCKVSNKALPSSIEKTISKAKGQPREPQVYTLPPSREEMTKNQVSLTCLVKGFYPSDIAVEWESNGQPENNYKTTPPVLDSDGSFFLYSKLTVDKSRWQQGNVFSCSVMHEALHNHYTQKSLSLSPGK
light: DIVMTQSPDSLAVSLGERATINCRASESVDNFGVSFMYWFQQKPGQPPKLLIYGASNQGSGVPDRFSGSGSGTDFTLTISSLQAEDVAVYYCQQTKEVPYTFGGGTKVEIKRTVAAPSVFIFPPSDEQLKSGTASVVCLLNNFYPREAKVQWKVDNALQSGNSQESVTEQDSKDSTYSLSSTLTLSKADYEKHKVYACEVTHQGLSSPVTKSFNRGEC
With B1 the eATP accumulation (OAW42 (CD39+) cells) was “eATP accumulated significantly”, the Production rate constant ([1]; indirect response PD model (inhibition on Kin), model parameter) was 20.5 h⁻¹ and the “Maximum inhibition (IMAX) of CD39free+” value ([1]; indirect response PD model, monocytes) was 0.926 and 0.92. For the same molecule, the “free CD39 at C2D1, monocytes” value ([2]; 100 mg IPH5201 dose, cycle 2 day 1) was “full rebound”, the “free CD39 at C2D1, monocytes” value ([2]; 300 mg IPH5201 dose, cycle 2 day 1) was “partial rebound” and the “free CD39 at C2D1, B-cells” value ([2]; only the 100 mg IPH5201 dose, cycle 2 day 1) was “rebound”. For the same molecule, the “dose at which IPH5201 saturated binding of membrane-bound CD39 on immune cells” value ([2]; patient samples, FIG. 11B) was 3000 mg, the “population PK model best describing IPH5201 PK” value ([3]; PK data from 45 patients) was 2-compartment model with parallel linear and saturatable kinetics and the “dose range in which PK was linear” value [3, 4] was ≥ 1000 mg. The “dose range in which PK was non-linear” value [3, 4] was ≤ 300 mg.
